B1: F1*; the commonest letter at each place (parent)
chain: GAGACCGCAACTGAAAAGTTGTTATCACTTGTCGTAAGACACTTTGGATGGGTTGAAGTTCTGCACGTAGAAGCAAAAGGC

Variants of: B1
Assay: fraction ligated after 30 min (ligated reads / total reads); higher = more ligase activity
Conditions: with F1*sub RNA substrate (template-directed ligation), 42 °C
Procedure, shortened: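 Oligo-pool templates of ligase ribozyme variants were PCR-amplified, T7-transcribed and gel-purified. Ligated and unligated bands were gel-separated, reverse transcribed with barcoded primers, and MiSeq-sequenced; core bases were filtered at quality ≥20. Fraction ligated per variant was ligated reads over total reads.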

| Variant | fraction ligated |
| --- | --- |
| G34T T49A | 0.756 |
| G34T T49C | 0.633 |
| G34T T49G | 0.772 |
| G34C G50A | 0.17 |
| G34C G50T | 0.733 |
| G34C G50C | 0.329 |
| G34T G55A | 0.835 |
| G34T G55T | 0.81 |
| G34T G55C | 0.796 |
| G34C A56T | 0.812 |
| G34C A56G | 0.794 |
| G34C A56C | 0.779 |
| G34A T49C | 0.737 |
| G34A T49G | 0.819 |
| G34A T49A | 0.786 |
| G34T T44C | 0.811 |
| G34T T44A | 0.792 |
| G34T T44G | 0.842 |
| G34C A36T | 0.832 |
| G34C A36C | 0.834 |
| G34C A36G | 0.824 |
| C33G T49C | 0.312 |
| C33G T49G | 0.706 |
| C33G T49A | 0.596 |

| Variant | fraction ligated |
| --- | --- |
| C33A G46T | 0.803 |
| C33A G46A | 0.84 |
| C33A G46C | 0.797 |
| G34C G46T | 0.762 |
| G34C G46C | 0.757 |
| G34C G46A | 0.789 |
| C33G A36C | 0.796 |
| C33G A36G | 0.821 |
| C33G A36T | 0.825 |
| C33G A39T | 0.851 |
| C33G A39G | 0.836 |
| C33G A39C | 0.833 |
| G34T T35G | 0.847 |
| G34T T35A | 0.854 |
| G34T T35C | 0.81 |
| C33G G34C | 0.843 |
| C33G G34T | 0.856 |
| C33G G34A | 0.829 |
| G34C A41G | 0.758 |
| G34C A41T | 0.778 |
| G34C A41C | 0.808 |
| C33G C40A | 0.819 |
| C33G C40T | 0.825 |
| C33G C40G | 0.826 |

| Variant | fraction ligated |
| --- | --- |
| C33G T35G | 0.843 |
| C33G T35C | 0.825 |
| C33G T35A | 0.872 |
| G34C T44A | 0.816 |
| G34C T44C | 0.803 |
| G34C T44G | 0.84 |
| C33G T44G | 0.808 |
| C33G T44C | 0.804 |
| C33G T44A | 0.812 |
| G34C T43G | 0.809 |
| G34C T43C | 0.78 |
| G34C T43A | 0.843 |
| G34C G38C | 0.818 |
| G34C G38T | 0.811 |
| G34C G38A | 0.813 |
| G34C T49C | 0.0345 |
| G34C T49G | 0.75 |
| G34C T49A | 0.776 |
| G34A G46C | 0.798 |
| G34A G46T | 0.778 |
| G34A G46A | 0.807 |
| C33A T49A | 0.725 |
| C33A T49G | 0.739 |
| C33A T49C | 0.37 |

| Variant | fraction ligated |
| --- | --- |
| G34C C42G | 0.84 |
| G34C C42A | 0.852 |
| G34C C42T | 0.849 |
| C33T T35G | 0.854 |
| C33T T35A | 0.879 |
| C33T T35C | 0.869 |
| C33T G46C | 0.807 |
| C33T G46A | 0.831 |
| C33T G46T | 0.791 |
| G34A A37G | 0.859 |
| G34A A37T | 0.84 |
| G34A A37C | 0.835 |
| G34T A56G | 0.785 |
| G34T A56T | 0.793 |
| G34T A56C | 0.805 |
| G34A A39T | 0.818 |
| G34A A39G | 0.835 |
| G34A A39C | 0.8 |
| G34T A57C | 0.806 |
| G34T A57G | 0.84 |
| G34T A57T | 0.81 |
| C33T A48T | 0.452 |
| C33T A48G | 0.814 |
| C33T A48C | 0.789 |

| Variant | fraction ligated |
| --- | --- |
| G34C A39G | 0.807 |
| G34C A39C | 0.806 |
| G34C A39T | 0.781 |
| G34T A37T | 0.843 |
| G34T A37C | 0.844 |
| G34T A37G | 0.829 |
| T35A A37G | 0.844 |
| T35A A37C | 0.872 |
| T35A A37T | 0.86 |
| G34T C40G | 0.811 |
| G34T C40T | 0.809 |
| G34T C40A | 0.802 |
| C33T G55A | 0.859 |
| C33T G55T | 0.839 |
| C33T G55C | 0.82 |
| G34A G38A | 0.861 |
| G34A G38T | 0.838 |
| G34A G38C | 0.825 |
| G34T A36G | 0.834 |
| G34T A36C | 0.843 |
| G34T A36T | 0.827 |
| C33G A48C | 0.727 |
| C33G A48G | 0.793 |
| C33G A48T | 0.0603 |

| Variant | fraction ligated |
| --- | --- |
| C33T A36C | 0.843 |
| C33T A36G | 0.854 |
| C33T A36T | 0.88 |
| C33T C40G | 0.877 |
| C33T C40A | 0.875 |
| C33T C40T | 0.859 |
| G34A G50T | 0.778 |
| G34A G50C | 0.43 |
| G34A G50A | 0.625 |
| C33T A41C | 0.789 |
| C33T A41G | 0.8 |
| C33T A41T | 0.808 |
| G34A C42T | 0.865 |
| G34A C42G | 0.85 |
| G34A C42A | 0.839 |
| G34A T43G | 0.799 |
| G34A T43C | 0.779 |
| G34A T43A | 0.836 |
| C33A T45C | 0.53 |
| C33A T45A | 0.803 |
| C33A T45G | 0.0419 |
| C33T C42A | 0.842 |
| C33T C42T | 0.86 |
| C33T C42G | 0.857 |

| Variant | fraction ligated |
| --- | --- |
| C33T T43A | 0.831 |
| C33T T43C | 0.822 |
| C33T T43G | 0.78 |
| C33G A41C | 0.822 |
| C33G A41T | 0.789 |
| C33G A41G | 0.791 |
| C33T T45G | 0.103 |
| C33T T45A | 0.75 |
| C33T T45C | 0.815 |
| C33G | 0.831 |
| C33T | 0.869 |
| G34A A41T | 0.811 |
| G34A A41C | 0.76 |
| G34A A41G | 0.81 |
| G34T A39C | 0.779 |
| G34T A39G | 0.808 |
| G34T A39T | 0.804 |
| G34C A37C | 0.806 |
| G34C A37T | 0.839 |
| G34C A37G | 0.845 |
| C33G G55T | 0.777 |
| C33G G55C | 0.643 |
| C33G G55A | 0.839 |

— the supplement of paper PMC6755084
